Measurements published in doi:10.1101/589580 (bioRxiv, 2019).
No end group written: not given here.

What was measured:
[1] = molecular target: full-length ZO1 with C-terminal mEGFP (UniProt Q07157 1-1748); test: client partitioning into phase-separated droplets
FCS molecular brightness = molecular target: the molecule itself; test: FCS molecular brightness

full-length ZO1 with C-terminal mEGFP, sequence (Q07157 whole entry): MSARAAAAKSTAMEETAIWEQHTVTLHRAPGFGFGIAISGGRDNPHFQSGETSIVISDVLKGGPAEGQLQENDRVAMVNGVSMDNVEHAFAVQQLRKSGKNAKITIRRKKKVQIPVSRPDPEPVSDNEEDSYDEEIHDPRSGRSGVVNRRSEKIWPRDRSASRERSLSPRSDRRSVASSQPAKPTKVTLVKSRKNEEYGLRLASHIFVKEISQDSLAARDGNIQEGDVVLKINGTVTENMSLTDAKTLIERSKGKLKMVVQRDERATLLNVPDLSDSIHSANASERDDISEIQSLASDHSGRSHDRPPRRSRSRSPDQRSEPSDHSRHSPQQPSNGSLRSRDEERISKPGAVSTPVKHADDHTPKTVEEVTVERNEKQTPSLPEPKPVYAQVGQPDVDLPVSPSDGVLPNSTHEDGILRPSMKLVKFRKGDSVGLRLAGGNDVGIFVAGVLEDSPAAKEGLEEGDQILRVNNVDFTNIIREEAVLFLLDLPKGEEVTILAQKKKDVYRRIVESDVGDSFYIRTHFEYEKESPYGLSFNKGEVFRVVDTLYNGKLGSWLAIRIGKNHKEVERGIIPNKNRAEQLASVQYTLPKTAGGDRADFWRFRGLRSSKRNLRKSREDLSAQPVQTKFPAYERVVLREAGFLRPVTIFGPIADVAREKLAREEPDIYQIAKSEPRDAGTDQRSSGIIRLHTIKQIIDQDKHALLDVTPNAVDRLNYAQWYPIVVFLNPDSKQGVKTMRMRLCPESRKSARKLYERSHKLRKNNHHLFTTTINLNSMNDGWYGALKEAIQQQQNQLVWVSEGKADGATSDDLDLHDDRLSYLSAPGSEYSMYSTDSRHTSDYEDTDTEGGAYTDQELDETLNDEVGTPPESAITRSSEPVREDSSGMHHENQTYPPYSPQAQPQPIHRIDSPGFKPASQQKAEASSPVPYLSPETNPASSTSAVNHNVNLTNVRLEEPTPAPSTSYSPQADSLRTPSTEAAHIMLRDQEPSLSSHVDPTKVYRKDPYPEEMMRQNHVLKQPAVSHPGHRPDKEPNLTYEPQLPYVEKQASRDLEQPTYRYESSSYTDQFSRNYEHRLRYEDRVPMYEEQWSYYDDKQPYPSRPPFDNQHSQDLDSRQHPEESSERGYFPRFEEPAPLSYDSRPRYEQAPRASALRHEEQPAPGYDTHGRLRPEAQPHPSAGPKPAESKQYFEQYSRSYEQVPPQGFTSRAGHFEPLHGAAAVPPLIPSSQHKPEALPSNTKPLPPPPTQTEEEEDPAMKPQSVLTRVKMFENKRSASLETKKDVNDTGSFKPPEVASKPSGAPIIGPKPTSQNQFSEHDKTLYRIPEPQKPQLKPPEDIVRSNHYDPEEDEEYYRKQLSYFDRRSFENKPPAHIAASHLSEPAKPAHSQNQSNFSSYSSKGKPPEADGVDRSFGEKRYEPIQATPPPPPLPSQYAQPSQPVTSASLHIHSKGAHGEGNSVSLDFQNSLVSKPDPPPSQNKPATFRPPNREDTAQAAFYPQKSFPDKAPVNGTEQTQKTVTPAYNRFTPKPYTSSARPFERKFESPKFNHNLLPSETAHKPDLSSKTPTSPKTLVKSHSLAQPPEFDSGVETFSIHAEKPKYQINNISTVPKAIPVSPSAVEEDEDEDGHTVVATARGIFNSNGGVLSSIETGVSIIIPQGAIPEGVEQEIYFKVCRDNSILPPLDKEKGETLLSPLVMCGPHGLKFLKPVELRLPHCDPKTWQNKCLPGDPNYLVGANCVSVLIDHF

Binder | partitioning (client fluorescence inside/outside ZO1 droplets) [1] | stoichiometry N (FCS molecular brightness)
SCPRKTTSYPTPRPYPKPAPSSGKDYV (also: CoA-DY647 on YBBR-tag, labelled with PPTase Sfp, tag not in given chain) [C-terminal tail of claudin-1] | 44 fold | 
transcription factor ZONAB (natural protein) not shown | 20 fold | 
endogenous ZO2 with N-terminal mNeonGreen (CRISPR knock-in, MDCK-II) (natural protein, dog (endogenous in MDCK-II), UniProt Q95168 1-1174, looked up) MEELIWEQYTVTLQKDSKRGFGIAVSGGRDNPHFENGETSIVISDVLPGGPADGLLQENDRVVMVNGTPMEDVLHSFAVQQLRKSGKIAAIVVKRPRKVQLAPPQGSLPVDEDDRAFEVMDEFDGRSARSGYSERSRRSSHGGRSRSWEDSPERGRPHERAWSQERERSRGRSLERGLDHDDDYRRPRERSRGRSLERGLDHDDDYGRPGERSHGMSTDRGYDRGYDRGYDRGYDRTYSPEAEYGRRTQPDARHAGSRSRSREHLRSRSPSPELRGRPDHAGQPDSDRPIGVLLMKSKANEEYGLRLGSQIFIKQMTRTALATKDGNLHEGDIILKINGTVTENMSLTDARKLIEKSRGKLQLVVLRDSKQTLINIPSLNDSDSEIEDISEIESNRSFSPEERRQQYSDYDYHSSNEKLKERPNSREDMQNRWSRMGATPTPFKSMGDIASVVGTENSKEPRYQEEPPAPQPKAAPRTFLRPSPEDEAIYGPNTKMVRFKKGDSVGLRLAGGNDVGIFVAGIQEGTSAEQEGLQEGDQILKVNTQDFRGLVREDAVLYLLEIPKGEMVTILAQSRADVYRDILACGRGDSFFIRSHFECEKETPQSLAFSRGEVFRVVDTLYDGKLGHWLAVRIGNELEKGLIPNKSRAEQMASVQNAQRDNAGDRADFWRMRGQRSGMKKNLRKSREDLTAAVSVSTKFPAYERVLLREAGFKRPVVLFGPIADIALEKLANELPDLFQTAKTEPKDAGSEKSSGVVRLNTVRQIIEQDKHALLDVTPKAVDLLNYTQWFPIVIFFNPDSRQGVKTMRQRLNPTSNKSSRKLYDQANKLKKTCAHLFTATINLNSANDSWFGSLKDTIQHQQGEAVWVSEGKMEGMDDDPEDRMSYLTAMGADYLSCDSRLISDFEDTDGEGGAYTDNELDEPAEEPLVSSITRSSEPVQHEESIRKPSPEPRAQMRRAASRDQLRDSSPPPAFKPEPPKAKTQNREESFDISRSHDYKSNPSAVAGNEVSGASTRSCPPPIAAKPSFGRSILKPSTPVPSPESEEVGEGSEEQEGAPKSVLGKVKIFEKMDHKARLQRMQELQEAQNARIEIAQKHPDIYAVPIKTHKPDPGLSQHTSSRPPEPQKGPSRLYQDPRGSYGSDAEEEEYRQQLSEHSKRGYYSQPSRYRDTEL |  | 1.5
cingulin (natural protein, UniProt Q9P2M7 1-1203, looked up) MEQAPNMAEPRGPVDHGVQIRFITEPVSGAEMGTLRRGGRRPAKDARASTYGVAVRVQGIAGQPFVVLNSGEKGGDSFGVQIKGANDQGASGALSSDLELPENPYSQVKGFPAPSQSSTSDEEPGAYWNGKLLRSHSQASLAGPGPVDPSNRSNSMLELAPKVASPGSTIDTAPLSSVDSLINKFDSQLGGQARGRTGRRTRMLPPEQRKRSKSLDSRLPRDTFEERERQSTNHWTSSTKYDNHVGTSKQPAQSQNLSPLSGFSRSRQTQDWVLQSFEEPRRSAQDPTMLQFKSTPDLLRDQQEAAPPGSVDHMKATIYGILREGSSESETSVRRKVSLVLEKMQPLVMVSSGSTKAVAGQGELTRKVEELQRKLDEEVKKRQKLEPSQVGLERQLEEKTEECSRLQELLERRKGEAQQSNKELQNMKRLLDQGEDLRHGLETQVMELQNKLKHVQGPEPAKEVLLKDLLETRELLEEVLEGKQRVEEQLRLRERELTALKGALKEEVASRDQEVEHVRQQYQRDTEQLRRSMQDATQDHAVLEAERQKMSALVRGLQRELEETSEETGHWQSMFQKNKEDLRATKQELLQLRMEKEEMEEELGEKIEVLQRELEQARASAGDTRQVEVLKKELLRTQEELKELQAERQSQEVAGRHRDRELEKQLAVLRVEADRGRELEEQNLQLQKTLQQLRQDCEEASKAKMVAEAEATVLGQRRAAVETTLRETQEENDEFRRRILGLEQQLKETRGLVDGGEAVEARLRDKLQRLEAEKQQLEEALNASQEEEGSLAAAKRALEARLEEAQRGLARLGQEQQTLNRALEEEGKQREVLRRGKAELEEQKRLLDRTVDRLNKELEKIGEDSKQALQQLQAQLEDYKEKARREVADAQRQAKDWASEAEKTSGGLSRLQDEIQRLRQALQASQAERDTARLDKELLAQRLQGLEQEAENKKRSQDDRARQLKGLEEKVSRLETELDEEKNTVELLTDRVNRGRDQVDQLRTELMQERSARQDLECDKISLERQNKDLKTRLASSEGFQKPSASLSQLESQNQLLQERLQAEEREKTVLQSTNRKLERKVKELSIQIEDERQHVNDQKDQLSLRVKALKRQVDEAEEEIERLDGLRKKAQREVEEQHEVNEQLQARIKSLEKDSWRKASRSAAESALKNEGLSSDEEFDSVYDPSSIASLLTESNLQTSSC | 25 fold | 
afadin (natural protein, UniProt P55196 1-1824, looked up) MSAGGRDEERRKLADIIHHWNANRLDLFEISQPTEDLEFHGVMRFYFQDKAAGNFATKCIRVSSTATTQDVIETLAEKFRPDMRMLSSPKYSLYEVHVSGERRLDIDEKPLVVQLNWNKDDREGRFVLKNENDAIPPKKAQSNGPEKQEKEGVIQNFKRTLSKKEKKEKKKREKEALRQASDKDDRPFQGEDVENSRLAAEVYKDMPETSFTRTISNPEVVMKRRRQQKLEKRMQEFRSSDGRPDSGGTLRIYADSLKPNIPYKTILLSTTDPADFAVAEALEKYGLEKENPKDYCIARVMLPPGAQHSDEKGAKEIILDDDECPLQIFREWPSDKGILVFQLKRRPPDHIPKKTKKHLEGKTPKGKERADGSGYGSTLPPEKLPYLVELSPGRRNHFAYYNYHTYEDGSDSRDKPKLYRLQLSVTEVGTEKLDDNSIQLFGPGIQPHHCDLTNMDGVVTVTPRSMDAETYVEGQRISETTMLQSGMKVQFGASHVFKFVDPSQDHALAKRSVDGGLMVKGPRHKPGIVQETTFDLGGDIHSGTALPTSKSTTRLDSDRVSSASSTAERGMVKPMIRVEQQPDYRRQESRTQDASGPELILPASIEFRESSEDSFLSAIINYTNSSTVHFKLSPTYVLYMACRYVLSNQYRPDISPTERTHKVIAVVNKMVSMMEGVIQKQKNIAGALAFWMANASELLNFIKQDRDLSRITLDAQDVLAHLVQMAFKYLVHCLQSELNNYMPAFLDDPEENSLQRPKIDDVLHTLTGAMSLLRRCRVNAALTIQLFSQLFHFINMWLFNRLVTDPDSGLCSHYWGAIIRQQLGHIEAWAEKQGLELAADCHLSRIVQATTLLTMDKYAPDDIPNINSTCFKLNSLQLQALLQNYHCAPDEPFIPTDLIENVVTVAENTADELARSDGREVQLEEDPDLQLPFLLPEDGYSCDVVRNIPNGLQEFLDPLCQRGFCRLIPHTRSPGTWTIYFEGADYESHLLRENTELAQPLRKEPEIITVTLKKQNGMGLSIVAAKGAGQDKLGIYVKSVVKGGAADVDGRLAAGDQLLSVDGRSLVGLSQERAAELMTRTSSVVTLEVAKQGAIYHGLATLLNQPSPMMQRISDRRGSGKPRPKSEGFELYNNSTQNGSPESPQLPWAEYSEPKKLPGDDRLMKNRADHRSSPNVANQPPSPGGKSAYASGTTAKITSVSTGNLCTEEQTPPPRPEAYPIPTQTYTREYFTFPASKSQDRMAPPQNQWPNYEEKPHMHTDSNHSSIAIQRVTRSQEELREDKAYQLERHRIEAAMDRKSDSDMWINQSSSLDSSTSSQEHLNHSSKSVTPASTLTKSGPGRWKTPAAIPATPVAVSQPIRTDLPPPPPPPPVHYAGDFDGMSMDLPLPPPPSANQIGLPSAQVAAAERRKREEHQRWYEKEKARLEEERERKRREQERKLGQMRTQSLNPAPFSPLTAQQMKPEKPSTLQRPQETVIRELQPQQQPRTIERRDLQYITVSKEELSSGDSLSPDPWKRDAKEKLEKQQQMHIVDMLSKEIQELQSKPDRSAEESDRLRKLMLEWQFQKRLQESKQKDEDDEEEEDDDVDTMLIMQRLEAERRARLQDEERRRQQQLEEMRKREAEDRARQEEERRRQEEERTKRDAEEKRRQEEGYYSRLEAERRRQHDEAARRLLEPEAPGLCRPPLPRDYEPPSPSPAPGAPPPPPQRNASYLKTQVLSPDSLFTAKFVAYNEEEEEEDCSLAGPNSYPGSTGAAVGAHDACRDAKEKRSKSQDADSPGSSGAPENLTFKERQRLFSQGQDVSNKVKASRKLTELENELNTK | 28 fold | 
